# Measured values published in the nanobody polyreactivity screen of Harvey et al. (2022).
# Assay: yeast display, Sf9 membrane polyspecificity reagent, FACS + sequencing; frameworks hold sequencing errors
# Procedure, shortened: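 Synthetic nanobody libraries on Saccharomyces cerevisiae BJ5465 were galactose-induced for 36–48 hours, stained 1 hour at 4 °C with 10% biotinylated, detergent-solubilized Sf9 membrane reagent and enriched on streptavidin microbeads. FACS then separated cells into low and high (top ~1%) gates by anti-HA (expression) and streptavidin (reagent binding) fluorescence. Genes were colony-PCR amplified, MiSeq 2 × 250 sequenced and CDR-length filtered. A clone's polyreactivity label is that of its gate of origin.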
row,Sequence,polyreactivity (PSR sort gate)
1,QVQLVESVGGLVQAGRSLRLSCAASGNTFLRYAMGWYRQAPGKERELVAAISRSGGSTYYADSVKGRFTISRDNAKNTVYLQMNSLKPEDTAVYYCAARRSSQPDKGYYYWGQGTQVTVSS,high polyreactivity
2,QVQLVESGGGLVQAGGSLRLSCDASGRIFGSYAMGWYRQAPGKERELVAAITYSGGRTYYADSVKGRFTISRDNAKNTVYLQMNSLKPEDTAVYYCNALGRLTSQYDYWGQGTQVTVSS,high polyreactivity
3,QVQLVESGGGLVQAGGSLRLSCAASGLTFVRYTMGWYRQAPGKVRELVAAITWSGGSTYYADSVKGRFTISRDNAKNTVYLQMNSLKPQDTAVYYCAARHRYWYGVTVDYWGQGTHVTVSS,high polyreactivity
4,QVQLVESGGGLVQAGGSLRLICAASGRIFKWYAMGWYRQAPGKERELVATITWSGGSTYYADSVKGRFTISRDNAKNTVYLQMNSLKPEDTAVYNCNADTWLALPGFDYWGQGTQVTVSS,high polyreactivity
5,QVQLVESGGGLVQAGGSLRLSCAASGSIFYTYAMGWSRQAPGKEREFVAAITSSGGSTYYADSVKGRFTISRDNAKNTVYLQMNSLKPEDTAVYYCAADSGSTSEYEYWGQGTQVTVSS,low polyreactivity
6,QVQLVESGGGLVQAGGSLRLSCASSGFTFPYYAMGGYRQAPGKERELVAAISWGGGSTYYADSVKGRFTISRDNAKNTVYLQMNSLKPEDTAVYYCNAYEYLSAGYDYWGQGTQVTVSS,low polyreactivity
7,QVQLVESGGGLVKAGGSLRLSCAASGRIFTANAMGWYRQAPGKEREFVAAITTSDGTYYADSVKGRFTISRDNAKNTVYLQMNSLKPEDTAVYYGATDTATYPTAMDYWGQGTQVTVSS,low polyreactivity
8,QLQLVESGGGIVQAGGSLRLSCAASGSIFPYNAMGWYRQAPGKEREFVAAINLSGGSTNYADSVKGRFTISRDNANYTFYLQMNSLKPEDTAVYYCNAPVVYFLPLNFDYWGQGTKVTVSS,low polyreactivity
9,QVQLVESGGGLVQAGGSLRLSCAASGSIFHFYAMGWYRQAPGKERELVAAITSGTSTYYADSVKGRFTISRDNAKNTVYLQMNSLKPEDTAVYYCAAEASHYYYNAYPSYGGSDYWGQGTQVTVSS,low polyreactivity
10,QVQLVESGGGLVQAGGSLRLSCAASGRIFSSYAMGWYRQAPGKERELVAGITRGGSTYADSVKGRFTISRDNAKNTVYLQMNSLKPEDTAVYYCAADALIATPSWGKYNYWGQGTQVTVSS,high polyreactivity
11,QVQLVESGGGLVQAGGSLRLSCAASGRIFCGYAMGWYRQAPGKERELVAAITSGGRTYYADSVKGRFTISRDNAKNTVYLQMNSLKPEDTAVYYCAAVYVPYYWLGRSRGLDYWGQGTQVTVSS,high polyreactivity
12,QVQLVESGGGLVQAGGSLRLSCAASGRIFTIYAMGWSRQAPGKERELVATISRRGGSTYYADSVKGRFTISRDNAKNTVYLKMNSLKPEDSAVYYFAADSVITWWAYYYWGQGTQVTVSS,high polyreactivity
13,QVQLVESGGGLVQAGGSLRLSCAASGNIFFVYDMGWYRQSPGKERELVAAISWSGGSTYADSVKGRFTISRDNAKNTVYLQMNSLKPEDTAVYYCNAQGYRYRIGYDYWGQGTQVTVSS,low polyreactivity
14,QVQLVETVGGLVQAGGSLRLTCAASGFTIYYNAMGWYRQAPGKERELVASISSNGTSTYYADSVKGRFTISRDNAKNTVYLQMNSLKPEDTAVYYCNVDIFDPRTYDYWGQGTQVTVSS,low polyreactivity
15,QVQLVESGGGLVQAGGSLRLSCAASGRIFPDYAMGWYRQAPGKERELVAAISSSGGRTYYADSVKGRFTISRDNAKNTVYLQMNSLKPEDTAVYYCAARGSYTSIFDYWGQGTQVTVSS,high polyreactivity
16,QVQLVESGGGLVQAGGSLLLICAASGSILGTNAMGWYRQAPGKERELVAAISSSGRTSYADSVKGRFTISRDNAKNTVSLQMNSLKPEDTAVYYCNASNYIVLIIDPDAAPWLYDYWGQGTQVTVSS,low polyreactivity
17,QVQLVESGGGLVQAGGSLRLSCAASGNTFYVNVMGWYRQAPGKEREFVAAISTRGVSTSYADSVKGRFTISRDNAKNTVYLQMNSLKPEDTAVYYCAASFRRPQPKGTTYGYWGQGTQVTVSS,high polyreactivity
18,QVQLVESGGGLVQAGGSLRLSCAASGNTFPINAMGWYRQAPGKERELVATITRPGGSTYYADSVKARFTISRDNAKNTVYLQMNSLKPEDTAVYYCAAANYTYASRWYDYWGQGTQVTVSS,low polyreactivity
19,QVQLVESGGGLVQAGGSLRLSCAASGGIFGTYTMGGYRQSPGKEREFVAAIRSSSGRTYYADSVKGRFTISRDNAKNTVYLQMNSLKPEVTAVYYCNAKYYGYRVGKYYPFGYWGQGTQVTVSS,high polyreactivity
20,QVQLVESGGGLVQAGGSLRLSCAASGFTFPYYAMGWYRQAPGKERDLVARISSGGSTNYADSVKGRFTISRDNAKNTVYLQMNSLKPEDTAVYYCNKVRTVTTYEYWGQGTQVTVSS,high polyreactivity
21,QVQLVESVGGLVQAGGSLRLSCAASGYILPKNTMGWYIQAPGKERELVAAISWSGGSTFYADSVKGRFTISRDNAKNTVYLQMNRLKPEDTAVYYCAADRSWSWYYRYDYWGQGTQVTVSS,low polyreactivity
22,QVQLVESGGGLVQAGGSLRLSCAASGSIFVYNAMGWYRQAPGKERELVASITWSGGRTYYADSVKGRFTISRDNAKNTVYLQMNSLKPEDTAVYYCNVRQGGPTVTWEYDYWGQGTQVTVSS,high polyreactivity

row,Sequence,polyreactivity (PSR sort gate)
1,QVQLVESGGGLVQAGGSLRLSCAASGRTLGPNAMGWYRQAPGKERELVAAISWSGGSTYYADSVKGRFTISRDNAKNTVYLQMNSLKPEDTAVYYCAAEWYWVYYVPYEYWGQGTQVTVSS,low polyreactivity
2,QVQLVESGGGLVQAGGSLRLSCAASGIISSVYAMGWYRQAPGKERELVAAISGSGGSTYYADSVKGRFTISRDNAKNTVYLQMNSLKPEDTAVYYCAIGYQYQGNSYGYWGQGTQVNVSS,low polyreactivity
3,QVQLVESGGGLFHAGGSLRLSCAASGIIFGGYTIGWYRQAPGKERELVAAISWSGVGTYYADSVKGRFTISRDNAKNTVYLQMNSLKPDDTAVYYCAAWAYYSDDDEYWGQGTQVTVSS,high polyreactivity
4,QVQLVESGGGLVQAGGSLRLSCAASGFILSDYAMGWYRQAPGKERELVAGINSGGSTYYADSVKGRFTISRDNAKNTVYLQMNSLIPEDTAVYYCAAGVDYWWLVHFLYYYWGQGTQVTVSS,high polyreactivity
5,QVQLVESGGGLVQAGGSLRLSCGASGGIFIFYAMGWYRHAPGKERELVAAISNVSSTNYADSVKGRFTISRDNAKHTVYLEMNSLKPEDTAVYYCNAVGVPSEYYSWGQGTQVTVSS,low polyreactivity
6,QVQLVESGGGLVQAGGSLRLSCAASGSIFTPNTMGWYRQAPGKEREFVAAITFSGGSTYYADSVKGRFTISRDNAKNTVYLQMNSLKPEDTAVYYCAAVYPTYDWYTPAYYYWGQGTQVTVSS,low polyreactivity
7,QVQLVESGGGLVQAGGSLRLSCAASGLTILPNAMGWYRPAPGKERELVAAISWGDGNTYYADSVKGRFTISRDNAKNTVYLQMNSLKPEDTAVYYCAADVIKSRTYDYWGQGTQVTVSS,low polyreactivity
8,QVQLVESGGGLVQAGGSLRLSCAASGSTFTYNAMGWYRQAPGKERELVAVIRPGGNTNDADSVKGRFTISRDNAKNTVYLQMNSLKPEDTAVYYCAKYFGNYSIYDYWGQGTQVTVSS,low polyreactivity
9,QVQLVESGGGLVQAGGSLRLSCAASGGTFAFNAMGWYRQAPGKERELVATIRYSGGSTYADSVKGRFTISRDNAKNTVYLQMNSLKPEDTAVYYCAADVIYWFSGEYDYWGQGTQVTVSS,low polyreactivity
10,QVQLVESGGGLVQAGGSLRLSCAAYGFTCPLNAMGWYRQAPGKERELVAAISGSSGSTYYADSVKGRFTISRDNAKNTVYLQMNSLKPEDTAVYYCAKKYAWRYYYWGQGTQVTVSS,high polyreactivity
11,QVQLVQSGGGLVQAGGSLRLSCAASGFTFIRYAMGWYRQAPGKERELVAAIRGTGTSTYYADSVKGRFTISRDIAKNTVYLQMNSLKPEDTAVYYCNAGTYYRSYGYDYWGQGTQVTVSS,low polyreactivity
12,QVQLVESGGGLVQAGGSLRLSCAASGRIFRAYAMGWYRQAPGKERELVADIRGGGSTNYADSVKGRFTISRDNAKNTVYLQMNSLKPEDTAVYYCNAAAYRGMRQGPRYYYWGQGTQVTVSS,high polyreactivity
13,QVQLVESGGGLVQAGGSLRLSCAASGFIFPYYAMGWYRQAPGKERELVAAISSGGSTYYADSVKGRFTISRDNAKNSVYLQMNSLKPEDTAVYYCAVRITYWTGEFDYWGQGTQVTVSS,high polyreactivity
14,QVHLVESGGGLVQAGGSLRLSCAASGSTFPANAMGRYRQAPGKERELVAAITSGGSTNYADSVKGRFTISRDNAKNTVYLQMNSLKPEDTAVYYCADESYQAHSFYVYYGYDYWGQGTQVTVSS,low polyreactivity
15,QVQLQESGGGLVQAGGSLRLSCAASGSIFQLHIMCWYRQAPGKERESVAAISYGTSTYYADSVKGRFTICRDNAKNTVYLQMNSPKTDDTAVYYCAALFLVSKHHHYWGEGTQVTVSS,low polyreactivity
16,QVQLVESGGGLVQAGGSLRLSCAASGRIFPWNAMGWYRQAPGKDRELVAAISFSAGRTYYADSVKGRFTISRDNAKNTVYLQMNSLKPEDTAVYYCNARIGSPWVWTGIIGYEYWGQGTQVTVSS,low polyreactivity
17,QVHLVESGGGLVQAGGSLRLSCAASGSILLRYAMGWYRQAPGKERELVAAIRTIGASTYYADSVKGRFTISRDNAKNTVYLQMNSLKPEDTAVYYCNAYLAEVLPLGKGRLYDYWGLGTQVTVSS,low polyreactivity
18,QVQLVESGGGLVQAGGSLRLSCAASGSIFRGNGMGWYRQAPGKERELVAAISRSGGRTYYADSVKGRFTISRDNAKNTVYLQMNSLKPEDTAVYYCNAARTYQYDYWGQGTQVTVSS,high polyreactivity
19,QVQLVESGGGLVQAGGSLRLSCAASGSTFKRYAMAWYREGPGKEMDLVASISRSGCSTYYADSVKGRFTISRDNAKNSVYLQMNSLIPEDTAVYYCASRGFSFSFSYPSYDYWGQGTQVTVSS,high polyreactivity
20,QVQLVESGGGLVQAGGSLRLSCAASGLTFEVYAMGWYRQAPGKERELVAAISSGGGSTYYADSVKGRFTISRDNAKNTVYLQMNSLKPEDTAVYYCNAVAKLYYWRYDYWGQGTQVTVSS,low polyreactivity
21,QVQLVESAGGLVQAGGSLRLSCAASGFTFTKYAMGWYRQAPRKESELVAAISSSGYSTYYADSVKGRFTISRDNAKNTVYLQMNSLKPEDSAVYYCAARGYYSSGVDYWGQGTQVTVSS,high polyreactivity
